To fix the notation:
B1: Tudor domain-containing protein 3, residues 554 to 611; numbered along this chain, Q9H7E2 (parent)
chain: KMWKPGDECFALYWEDNKFYRAEVEALHSSGMTAVVKFIDYGNYEEVLLSNIKPIQTE

± gives the uncertainty stated by the source.

Results on 167 variants are retold here after the Human Domainome abundance scans (Beltran et al. 2025).

This series covers variants of B1. In words: abundance fitness (aPCA) (normalised: wild type 0, dead -1); higher = more abundant; growth selection in yeast, the domain comes from the species named. The following applies: Homo sapiens.
Regarding E15D, the abundance fitness is -0.336 ± 0.12.

In the case of E15R, the abundance fitness was 0.022 ± 0.056. For E15T the value was -0.139 ± 0.073; for E15F, -0.149 ± 0.1. Under E15C stands -0.21 ± 0.098. Under E15W stands -0.27 ± 0.074. Take E15Q: the abundance fitness is -0.111 ± 0.11.

In the case of E15I, the abundance fitness was -0.156 ± 0.11.

For the variant E15P, the abundance fitness was -0.185 ± 0.093. Under E15Y stands 0.099 ± 0.11. For E15H, the abundance fitness is -0.251 ± 0.11. For E15L the value was -0.064 ± 0.06; for E15G, -0.142 ± 0.062. For E15K the value was 0.081 ± 0.082; for E15N, -0.105 ± 0.1. Under E15V stands -0.026 ± 0.061. Regarding E15S, the abundance fitness was -0.114 ± 0.06. Regarding E23M, the abundance fitness was -0.005 ± 0.1. For E23Q the value was -0.103 ± 0.11; for E23A, -0.257 ± 0.071. For E23H, the abundance fitness was determined as 0.071 ± 0.088.

Regarding E23P, the abundance fitness was -0.838 ± 0.11. On to E23R, for which the abundance fitness came to 0.032 ± 0.057. For E23T the value was -0.004 ± 0.07; for E23G, -0.596 ± 0.075. Under E23S stands 0.013 ± 0.059; under E23N, 0.059 ± 0.097; under E23L, -0.225 ± 0.062. Take E23I: the abundance fitness was found to be 0.143 ± 0.1. Under E23C stands -0.034 ± 0.079; under E23F, -0.1 ± 0.11; under E23W, -0.176 ± 0.08.

F10S: the abundance fitness was -0.234 ± 0.064. For F10I the value was -0.076 ± 0.1; for F10W, -0.051 ± 0.079; for F10M, 0.068 ± 0.085.

Regarding F10P, the abundance fitness was -0.923 ± 0.15. Under F10Q stands -0.006 ± 0.099; under F10Y, 0.026 ± 0.088; under F10T, -0.383 ± 0.087. Under F10G stands -0.84 ± 0.077. For F10V the value was -0.128 ± 0.064; for F10L, 0.084 ± 0.064. As for F10E, the abundance fitness turned out to be 0.023 ± 0.081. For F10A the value was -0.178 ± 0.072; for F10C, -0.2 ± 0.092. For F10D the value was -0.267 ± 0.1; for F10H, -0.255 ± 0.11; for F10K, -0.32 ± 0.11.

Take V24M: the abundance fitness was -0.726 ± 0.1.

V24N: the abundance fitness was -0.825 ± 0.15. For V24G the value was -0.994 ± 0.094; for V24W, -0.811 ± 0.093; for V24E, -1.04 ± 0.19.

As for V24I, the abundance fitness is -0.027 ± 0.13.

On to V24F, for which the abundance fitness was -0.22 ± 0.096. For V24C the value was -0.949 ± 0.13; for V24D, -1.03 ± 0.28; for V24P, -0.906 ± 0.11. Under V24R stands -0.773 ± 0.061; under V24Y, -0.814 ± 0.15.

In the case of V24L, the abundance fitness is -0.215 ± 0.059. For V24Q the value was -0.986 ± 0.12; for V24S, -0.751 ± 0.075; for V24H, -0.847 ± 0.18. For the variant V24K, the abundance fitness was -0.849 ± 0.17.

As for V24A, the abundance fitness is -0.939 ± 0.13. Regarding V24T, the abundance fitness was -0.863 ± 0.11.

In the case of E8N, the abundance fitness is -0.077 ± 0.11.

For E8H, the abundance fitness is 0.007 ± 0.089. For E8Y the value was -0.079 ± 0.15.

As for E8I, the abundance fitness is 0.056 ± 0.1. For E8V the value was -0.122 ± 0.066. For E8L the value was -0.016 ± 0.075. Under E8W stands -0.178 ± 0.077; under E8M, -0.046 ± 0.12; under E8K, 0.017 ± 0.095. In the case of E8T, the abundance fitness was -0.083 ± 0.093. For E8G the value was -0.264 ± 0.054; for E8F, -0.118 ± 0.12; for E8Q, -0.055 ± 0.088.

As to E8C, the abundance fitness was -0.066 ± 0.086. For E8P the value was -0.032 ± 0.088. Under L12V stands -0.368 ± 0.071; under L12C, -0.236 ± 0.13; under L12Q, -0.252 ± 0.09. Under L12K stands 0.01 ± 0.12. Take L12D: the abundance fitness is -0.891 ± 0.19.

For L12A, the abundance fitness is -0.525 ± 0.083. For L12Y the value was -0.754 ± 0.2; for L12S, -0.725 ± 0.088. On to L12G, for which the abundance fitness is -0.782 ± 0.086. Under L12W stands -0.384 ± 0.083; under L12F, -0.493 ± 0.15.

With L12T, the abundance fitness was -0.861 ± 0.12. As to L12P, the abundance fitness was -0.394 ± 0.075. For L12H, the abundance fitness is -0.552 ± 0.13. Turning to L12R, the abundance fitness is -0.124 ± 0.059. Under L12N stands -0.486 ± 0.17; under L12I, -0.272 ± 0.14; under W14C, 0.046 ± 0.078. Under W14M stands 0.066 ± 0.1. Under W14V stands -0.012 ± 0.057; under W14S, 0.134 ± 0.075; under W14N, 0.139 ± 0.1. With W14F, the abundance fitness was -0.136 ± 0.084. On to W14E, for which the abundance fitness came out at 0.011 ± 0.077. For W14R the value was 0.071 ± 0.056. For W14L the value was -0.034 ± 0.062; for W14G, 0.073 ± 0.054; for W14I, -0.131 ± 0.11.

W14H: the abundance fitness was 0.043 ± 0.15.

Regarding W14Q, the abundance fitness worked out at 0.169 ± 0.099. For W14A, the abundance fitness turned out to be 0.173 ± 0.065. Turning to W14T, the abundance fitness amounted to 0.016 ± 0.075.

In the case of W14D, the abundance fitness is 0.129 ± 0.1. Regarding W14P, the abundance fitness amounted to 0.041 ± 0.11. In the case of W14Y, the abundance fitness is -0.006 ± 0.12.

As for W14K, the abundance fitness was 0.166 ± 0.1. Under Y13W stands -0.06 ± 0.075; under Y13R, 0.069 ± 0.055; under Y13I, -0.975 ± 0.24. Consider Y13A, for which the abundance fitness was -0.02 ± 0.069. For Y13P the value was -0.902 ± 0.13; for Y13Q, -0.292 ± 0.092. As for Y13C, the abundance fitness came out at 0.068 ± 0.1. Under Y13T stands -0.323 ± 0.089; under Y13D, -0.345 ± 0.15. For Y13F the value was 0.065 ± 0.11.

Turning to Y13V, the abundance fitness is -0.897 ± 0.1.

As to Y13K, the abundance fitness is -0.028 ± 0.093. Under Y13L stands -0.15 ± 0.072; under Y13N, 0 ± 0.1. For Y13M the value was -0.287 ± 0.1.

On to Y13G, for which the abundance fitness is -0.252 ± 0.061. Under D16F stands -0.76 ± 0.25. Under D16M stands -0.754 ± 0.11; under D16A, -0.529 ± 0.08; under D16Q, -0.498 ± 0.12. For D16G the value was -0.89 ± 0.077.

D16N: the abundance fitness was -0.417 ± 0.15.

For the variant D16I, the abundance fitness was -1.04 ± 0.26. For D16H the value was -0.116 ± 0.14. Regarding D16K, the abundance fitness was -0.366 ± 0.11. For D16L the value was -0.588 ± 0.085; for D16C, -0.961 ± 0.14. Under D16T stands -0.377 ± 0.1; under D16Y, -0.691 ± 0.17. As to D16R, the abundance fitness is -0.308 ± 0.057.

As for D16P, the abundance fitness was -0.602 ± 0.12. For D16V the value was -0.722 ± 0.099; for C9T, -1.04 ± 0.16. For C9Y the value was -0.802 ± 0.099; for C9N, -0.82 ± 0.27; for C9E, -0.887 ± 0.14. Under C9P stands -0.905 ± 0.12; under C9L, -0.913 ± 0.086. As for C9I, the abundance fitness was -0.975 ± 0.3.

C9R: the abundance fitness is -0.819 ± 0.083. For C9G the value was -0.869 ± 0.076; for C9H, -0.817 ± 0.26; for C9D, -1.03 ± 0.23. For C9S the value was -0.942 ± 0.1; for C9W, -0.773 ± 0.095. For C9K the value was -0.915 ± 0.17; for C9F, -0.915 ± 0.16. Consider C9Q, for which the abundance fitness was -0.93 ± 0.12.
